The record followed here is US20120282643A1.

This assay concerns the target sulfite reductase tagged with a C-terminal GFP S11 (SEQ ID NO: 16). Nature of the assay: cell-based or functional assay.

“Split-CFP S1-10 (D19E, D21E, Y66W, H148D, T205S)” yielded a Final Fluorescence (Ident. A2) of 4110, a Final Fluorescence (Ident. A3) of 1990, a Final Fluorescence (Ident. A6) of 5000 and a Final Fluorescence (Ident. A8) of 2360. The substance also showed a Final Fluorescence (Ident. A9) of 4990, a Final Fluorescence (Ident. A10) of 4930, a Final Fluorescence (Ident. B1) of 4790 and a Final Fluorescence (Ident. B2) of 3260. The Final Fluorescence (Ident. B3) was 2360, the Final Fluorescence (Ident. B4) was 1760, the Final Fluorescence (Ident. B5) came to 2740 and the Final Fluorescence (Ident. B6) was 2950. The same substance displayed a Final Fluorescence (Ident. C2) of 2250, a Final Fluorescence (Ident. C3) of 2200, a Final Fluorescence (Ident. C5) of 2540 and a Final Fluorescence (Ident. C9) of 1830. Further, the Final Fluorescence (Ident. D5) was determined as 2420, the Final Fluorescence (Ident. D9) came out at 1340, the Final Fluorescence (Ident. D12) was determined as 3130 and the Final Fluorescence (Ident. E1) came to 4830. This substance also returned a Final Fluorescence (Ident. E2) of 1690, a Final Fluorescence (Ident. E3) of 1980, a Final Fluorescence (Ident. E5) of 1800 and a Final Fluorescence (Ident. E6) of 2560. This substance also yielded a Final Fluorescence (Ident. F1) of 4070, a Final Fluorescence (Ident. F2) of 1800, a Final Fluorescence (Ident. F3) of 2290 and a Final Fluorescence (Ident. F4) of 1540. This substance returned a Final Fluorescence (Ident. F5) of 2900, a Final Fluorescence (Ident. F7) of 2850, a Final Fluorescence (Ident. F9) of 2710 and a Final Fluorescence (Ident. G1) of 4400. Also, the Final Fluorescence (Ident. G3) came to 2410, the Final Fluorescence (Ident. G6) is 2580, the Final Fluorescence (Ident. G7) came to 2130 and the Final Fluorescence (Ident. H1) is 4140. This substance displayed a Final Fluorescence (Ident. H4) of 2360, a Final Fluorescence (Ident. H7) of 3870, a Final Fluorescence (Ident. H8) of 2820 and an Initial Rate (Ident. A2) of 14100. Also, the Initial Rate (Ident. A3) is 8810, the Initial Rate (Ident. A6) amounted to 18800, the Initial Rate (Ident. A8) is 11700 and the Initial Rate (Ident. A9) is 17700. The substance further showed an Initial Rate (Ident. A10) of 16900, an Initial Rate (Ident. B1) of 15700, an Initial Rate (Ident. B2) of 11900 and an Initial Rate (Ident. B3) of 8260. In addition, the Initial Rate (Ident. B4) was 9110, the Initial Rate (Ident. B5) was 10300, the Initial Rate (Ident. B6) was 10600 and the Initial Rate (Ident. C2) stood at 7890. Besides, the Initial Rate (Ident. C3) stood at 7950, the Initial Rate (Ident. C5) amounted to 9490, the Initial Rate (Ident. C9) turned out to be 7200 and the Initial Rate (Ident. D5) was found to be 8850. Besides, the Initial Rate (Ident. D9) turned out to be 7490, the Initial Rate (Ident. D12) was 12000, the Initial Rate (Ident. E1) came to 11700 and the Initial Rate (Ident. E2) amounted to 7780. The substance further showed an Initial Rate (Ident. E3) of 6770, an Initial Rate (Ident. E5) of 6370, an Initial Rate (Ident. E6) of 9260 and an Initial Rate (Ident. F1) of 9890. The substance also displayed an Initial Rate (Ident. F2) of 6690, an Initial Rate (Ident. F3) of 7600, an Initial Rate (Ident. F4) of 7760 and an Initial Rate (Ident. F5) of 10200. Moreover, the Initial Rate (Ident. F7) is 10000, the Initial Rate (Ident. F9) amounted to 9770, the Initial Rate (Ident. G1) is 11000 and the Initial Rate (Ident. G3) stood at 10800. In addition, the Initial Rate (Ident. G6) amounted to 11900, the Initial Rate (Ident. G7) turned out to be 9680, the Initial Rate (Ident. H1) amounted to 10000 and the Initial Rate (Ident. H4) was 10400. Further, the Initial Rate (Ident. H7) worked out at 12900 and the Initial Rate (Ident. H8) was 10900.
“Split-CFP S1-10 (D19E, D21E, Y66W, H148D, T205S, S208L)” returned a Final Fluorescence (Ident. C4) of 2270, a Final Fluorescence (Ident. G5) of 1360, an Initial Rate (Ident. C4) of 7790 and an Initial Rate (Ident. G5) of 6070.
“Split-CFP S1-10 (D19E, D21N, Y66W, H148D, T205S)” yielded a Final Fluorescence (Ident. A7) of 2550, a Final Fluorescence (Ident. C6) of 1120, a Final Fluorescence (Ident. C7) of 1730 and a Final Fluorescence (Ident. C8) of 1010. Besides, the Final Fluorescence (Ident. C10) worked out at 1720, the Final Fluorescence (Ident. D7) is 744, the Final Fluorescence (Ident. D10) was 1200 and the Final Fluorescence (Ident. E8) stood at 1140. The substance also came in with a Final Fluorescence (Ident. G2) of 1910, a Final Fluorescence (Ident. G8) of 1420, a Final Fluorescence (Ident. G9) of 1700 and a Final Fluorescence (Ident. H3) of 2130. This substance also showed a Final Fluorescence (Ident. H5) of 2000, a Final Fluorescence (Ident. H9) of 1340, an Initial Rate (Ident. A7) of 8100 and an Initial Rate (Ident. C6) of 3590. The Initial Rate (Ident. C7) is 6280, the Initial Rate (Ident. C8) amounted to 4550, the Initial Rate (Ident. C10) is 6180 and the Initial Rate (Ident. D7) is 3120. Moreover, the Initial Rate (Ident. D10) was 4290, the Initial Rate (Ident. E8) was found to be 5330, the Initial Rate (Ident. G2) worked out at 3790 and the Initial Rate (Ident. G8) turned out to be 9440. Besides, the Initial Rate (Ident. G9) was 7820, the Initial Rate (Ident. H3) stood at 6870, the Initial Rate (Ident. H5) was 5750 and the Initial Rate (Ident. H9) was 7800.
“Split-CFP S1-10 (D19E, D21N, Y66W, S99T, H148D, T205S)” had a Final Fluorescence (Ident. B9) of 703, a Final Fluorescence (Ident. C12) of 1740, an Initial Rate (Ident. B9) of 2230 and an Initial Rate (Ident. C12) of 5120.
Regarding “Split-CFP S1-10 (D19E, Y66W, H148D, T205S) (from UniProt P42212 1-214)”, the Final Fluorescence (Ident. A5) turned out to be 2860 and the Initial Rate (Ident. A5) was 9770.
The substance “Split-CFP S1-10 (D21E, Y66W, H148D, T205S) (from UniProt P42212 1-214)” came in with a Final Fluorescence (Ident. G4) of 5100 and an Initial Rate (Ident. G4) of 13000.
Take “Split-CFP S1-10 (D21N, Y66W, H148D, T205S) (from UniProt P42212 1-214)”: the Final Fluorescence (Ident. A12) came to 990, the Final Fluorescence (Ident. B12) worked out at 1790, the Initial Rate (Ident. A12) worked out at 3060 and the Initial Rate (Ident. B12) was found to be 4900.
Turning to “Split-CFP S1-10 (D21N, Y66W, T205S) (from UniProt P42212 1-214)”, the Final Fluorescence (Ident. F12) came out at 868 and the Initial Rate (Ident. F12) came to 1980.
Turning to “Split-CFP S1-10 (V16I, D19E, D21E, Y66W, H148D, T205S)”, the Final Fluorescence (Ident. B8) was found to be 1640, the Final Fluorescence (Ident. B10) was found to be 3340, the Final Fluorescence (Ident. D2) was found to be 3360 and the Initial Rate (Ident. B8) came to 8930. For the same substance, the Initial Rate (Ident. B10) was 11500 and the Initial Rate (Ident. D2) turned out to be 11500.
On to “Split-CFP S1-10 (V16I, D21E, Y66W, T205S) (from UniProt P42212 1-214)”, for which the Final Fluorescence (Ident. E12) was determined as 1070 and the Initial Rate (Ident. E12) came out at 2040.
